“And” between values parts separate entries of the source, which are not always exact repeats. Identical values can stand only once.
B1: Sig-7 R124A: Siglec-7-Fc essential arginine mutant (protein, UniProt Q9Y286 19-353, looked up, variant R124A)
extracellular domain: QKSNRKDYSLTMQSSVTVQEGMCVHVRCSFSYPVDSQTDSDPVHGYWFRAGNDISWKAPVATNNPAWAVQEETRDRFHLLGDPQTKNCTLSIRDARMSDAGRYFFAMEKGNIKWNYKYDQLSVNVTALTHRPNILIPGTLESGCFQNLTCSVPWACEQGTPPMISWMGTSVSPLHPSTTRSSVLTLIPQPQHHGTSLTCQVTLPGAGVTTNRTIQLNVSYPPQNLTVTVFQGEGTASTALGNSSSLSVLEGQSLRLVCAVDSNPPARLSWTWRSLTLYPSQPSNPLVLELQVHLGDEGEFTCRAQNSLGSQHVSLNLSLQQEYTGKMRPVSGVLL
modifications: extracellular domain fused to human IgG1 Fc
notes: Siglec-7-Fc essential arginine mutant
B2: Sig-16 R120A: Siglec-16-Fc essential arginine mutant (protein, UniProt A6NMB1 17-434, looked up, variant R120A)
extracellular domain: NKDPSYSLQVQRQVPVPEGLCVIVSCNLSYPRDGWDESTAAYGYWFKGRTSPKTGAPVATNNQSREVAMSTRDRFQLTGDPGKGSCSLVIRDAQREDEAWYFFAVERGSRVRHSFLSNAFFLKVTALTQKPDVYIPETLEPGQPVTVICVFNWAFKKCPAPSFSWTGAALSPRRTRPSTSHFSVLSFTPSPQDHDTDLTCHVDFSRKGVSAQRTVRLRVASLELQGNVIYLEVQKGQFLRLLCAADSQPPATLSWVLQDRVLSSSHPWGPRTLGLELPGVKAGDSGRYTCRAENRLGSQQRALDLSVQYPPENLRVMVSQANRTVLENLRNGTSLRVLEGQSLRLVCVTHSSPPARLSWTWGEQTVGPSQPSDPGVLQLPRVQMEHEGEFTCHARHPLGSQRVSLSFSVHCKSGPMTG
modifications: extracellular domain fused to human IgG1 Fc
notes: Siglec-16-Fc essential arginine mutant

Assays:
T47D = assay: Flow cytometry, pre-complexed Siglec-Fc binding to breast cancer cell line; type: cell-based; conditions: Strep-Tactin-AF647, replicates
Description: (§1) Strep-Tactin-AF647 (0.55 μg/mL, 0.57 pmol), streptavidin (Biolegend), or anti-human igG1 (Biolegend) was added to Siglec supernatant (50 μL) or purified Siglec and allowed to sit at 4 °C for 15 min. After, the pre-complexed solution was added to cells in a 96-well U-bottom plate for 30 min at 4 °C. After, 200 μL of flow buffer (HBSS, 0.1% BSA, 5 mM EDTA) was added and the plate was spun down at 300 rcf for 5 min. The cells were resuspended in 200 μL of flow buffer and processed through the flow cytometer.
(§2) Flow cytometry was performed on a BD LSRFortessa™ X-20 cell analyzer using BD FACSDiva Software Version 8.0.1 and data was processed using FlowJo LLC. Version 9.9.6 and Graphpad Prism 8. The live, single cell populations were gated out with two gates to obtain the median fluorescence intensity (MFI), which indicates binding of the Siglec-Fc-secondary complex to the cell surface. Control cells that were incubated with Strep-Tactin-AF647 (0.55 μg/mL, 0.57 pmol) was used to determine the baseline fluorescence. Number of cells (# cells) plotted indicates percentage of max (% max).

MDA-MB-231 = assay: as above; type: cell-based; conditions: Strep-Tactin-AF647, replicates
Description: as §1, §2

MDA-MB-468 = assay: as above; type: cell-based; conditions: Strep-Tactin-AF647, replicates
Description: as §1, §2

BT549 = assay: as above; type: cell-based; conditions: Strep-Tactin-AF647, replicates
Description: as §1, §2

MCF7 = assay: as above; type: cell-based; conditions: Strep-Tactin-AF647, replicates
Description: as §1, §2

HS578T = assay: as above; type: cell-based; conditions: Strep-Tactin-AF647, replicates
Description: as §1, §2

ZR-75-1 = assay: as above; type: cell-based; conditions: Strep-Tactin-AF647, replicates
Description: as §1, §2

[1] = system: neutrophils (CD15+), human splenocytes; assay: Siglec-Fc (CD22-Fc V1/V2, with or without Fc receptor block) binding to splenocytes, flow cytometry; type: cell-based; conditions: Suppl Fig 12; three replicate columns
Description: (§3) For human splenocytes, the sample was homogenized in media through a 40 µm filter (Corning) under sterile conditions. Samples were centrifuged at 300 rcf for 5 min. The resulting pellet from the spleen sample and whole human blood were treated with RBC lysis buffer (7 min) and centrifuged at 300 rcf and the RBC lysis was repeated twice more until no RBC remained in the pellet. Samples were treated with human Fc-receptor blocking agent (TruStain FX, Biolegend) in flow buffer (HBSS, 0.1% BSA, 5 mM EDTA). For analysis, the following cocktail was used: hSig8 (PerCP/Cy5.5, clone 7C9, Biolegend cat. no. 347108, 1:200), hCD123 (PE/Cy7, clone 6H6, Biolegend cat. no. 306010, 1:200), hCD19 (PE, clone SJ25C1, Biolegend cat. no. 363004, 1:200), hCD3 (FITC, BD Pharmingen cat. no. 555332, 1:50), hCD14 (BV605, clone M5E2, BD Horizon cat. no. 564056, 1:200), hCD15 (BUV395, clone HI98, BD Horizon cat. no. 563872, 1:200), hCD56 (BV510, clone NCAM16.2, BD Horizon cat. no. 563041, 1:200). For human peripheral blood samples, we additionally used hHLA-DR (APC-Cy7, clone L243, Biolegend cat. no. 307618, 1:200). Pre-complexed Siglec-Fc/Strep-Tactin-AF647 (described above) was added to the antibody cocktail, added to cells, and allowed to stain at 4 °C for 45 min. The cells were then centrifuged at 300 rcf for 5 min and resuspended in flow buffer containing 1 µg/mL propidium iodide prior to analysis by flow cytometry.
as §2

A549 cells = assay: Flow cytometry, pre-complexed Siglec-Fc binding; type: cell-based; conditions: Strep-Tactin-AF647, replicates
Description: as §1, §2

HEK293T cells = assay: Flow cytometry, pre-complexed Siglec-Fc binding; type: cell-based; conditions: HEK; Strep-Tactin-AF647; replicates
Description: as §1, §2

HuH7 cells = assay: Flow cytometry, pre-complexed Siglec-Fc binding; type: cell-based; conditions: Strep-Tactin-AF647, replicates
Description: as §1, §2

Jurkat cells = assay: Flow cytometry, pre-complexed Siglec-Fc binding; type: cell-based; conditions: Strep-Tactin-AF647, replicates
Description: as §1, §2

K562 cells = assay: Flow cytometry, pre-complexed Siglec-Fc binding; type: cell-based; conditions: Strep-Tactin-AF647, replicates
Description: as §1, §2

U937 cells = assay: Flow cytometry, Siglec-Fc pre-complexed with Strep-Tactin, streptavidin or anti-human IgG1; type: cell-based; conditions: U937; Strep-Tactin-AF647; replicates, Fig. 2
Description: as §1, §2

basophils (CCR3+) = assay: Siglec ligands on peripheral blood immune cells, flow cytometry; type: cell-based, human; design: key: median fluorescence intensity (MFI) of Siglec-Fc complex binding; conditions: replicate values
Description: (§4) Siglec supernatant (50 μL) or purified Siglec was incubated with cells in a 96-well U-bottom plate for 30 min at 4 °C. Following the incubation, 200 μL of flow buffer (HBSS, 0.1% BSA, 5 mM EDTA) was added and the plate was spun down at 300 rcf for 5 min. Strep-Tactin-AF647 (0.55 μg/mL, 50 μL, 0.57 pmol), streptavidin (Biolegend), or anti-human IgG1 (Biolegend) was added to the cells and incubated for 30 min at 4 °C. After, 200 μL of flow buffer (HBSS, 0.1% BSA, 5 mM EDTA) was added and the plate was spun down at 300 rcf for 5 min. The cells were resuspended in 200 μL of flow buffer and processed through the flow cytometer.
as §1, §3, §2

monocytes (CD14+) = assay: as above; type: cell-based, human; design: key: median fluorescence intensity (MFI) of Siglec-Fc complex binding; conditions: replicate values
Description: as §4, §1, §3, §2

eosinophils (Siglec-8+) = assay: as above; type: cell-based, human; design: key: median fluorescence intensity (MFI) of Siglec-Fc complex binding; conditions: replicate values
Description: as §4, §1, §3, §2

NK cells (CD56+) = assay: as above; type: cell-based, human; conditions: replicate values
Description: as §3, §2

B-cells (CD19+) = assay: as above; type: cell-based, human; conditions: replicate values
Description: as §3, §2

cDCs (CD123dim/HLA-DR+) = assay: as above; type: cell-based, human; conditions: cDC; replicate values
Description: as §3, §2

pDCs (CD123high/HLA-DR+) = assay: as above; type: cell-based, human; conditions: pDC; replicate values
Description: as §3, §2

neutrophils (CD15+) = assay: as above; type: cell-based, human; conditions: replicate values
Description: as §3, §2

T-cells (CD3+) = assay: as above; type: cell-based, human; conditions: replicate values
Description: as §3, §2

[2] = system: B-cells (CD19+), human splenocytes; assay: Siglec-Fc binding to splenocytes, flow cytometry; type: cell-based; conditions: Suppl Fig 12; three replicate columns
Description: as §3, §2

[3] = system: NK cells (CD56+), human splenocytes; assay: Siglec-Fc binding to splenocytes, flow cytometry; type: cell-based; conditions: Suppl Fig 12; three replicate columns
Description: as §3, §2

[4] = system: monocytes (CD14+), human splenocytes; assay: Siglec-Fc binding to splenocytes, flow cytometry; type: cell-based; conditions: Suppl Fig 12; three replicate columns
Description: as §3, §2

[5] = system: T-cells (CD3+), human splenocytes; assay: Siglec-Fc binding to splenocytes, flow cytometry; type: cell-based; conditions: Suppl Fig 12; three replicate columns
Description: as §3, §2

[6] = system: peripheral blood immune cells; assay: Comparison of 2-step and pre-complexed Siglec-Fc binding, flow cytometry (Figure 3e-g); type: cell-based, human; conditions: Figure 3f; 2-Step; listed as Siglec-7-Fc R124A

Molecule | binding of pre-complexed Siglec-Fc (MFI) (T47D) | binding of pre-complexed Siglec-Fc (MFI) (MDA-MB-231) | binding of pre-complexed Siglec-Fc (MFI) (MDA-MB-468) | binding of pre-complexed Siglec-Fc (MFI) (BT549) | binding of pre-complexed Siglec-Fc (MFI) (MCF7) | binding of pre-complexed Siglec-Fc (MFI) (HS578T) | binding of pre-complexed Siglec-Fc (MFI) (ZR-75-1) | Binding, Neutrophils [1] | binding of pre-complexed Siglec-Fc (MFI) (A549 cells) | binding of pre-complexed Siglec-Fc (MFI) (HEK293T cells) | binding of pre-complexed Siglec-Fc (MFI) (HuH7 cells) | binding of pre-complexed Siglec-Fc (MFI) (Jurkat cells) | binding of pre-complexed Siglec-Fc (MFI) (K562 cells) | binding of pre-complexed Siglec-Fc (MFI) (U937 cells) | Siglec-Fc binding (Figure 3d) (basophils (CCR3+)) | Siglec-Fc binding (Figure 3d) (monocytes (CD14+)) | Siglec-Fc binding (Figure 3d) (eosinophils (Siglec-8+)) | Siglec-Fc binding (Figure 3d) (NK cells (CD56+)) | Siglec-Fc binding (Figure 3d) (B-cells (CD19+)) | Siglec-Fc binding (Figure 3d) (cDCs (CD123dim/HLA-DR+)) | further results
B1 | 116 and 117 and 119 | 165 and 175 and 187 | 155 and 154 and 158 | 114 and 117 and 118 | 121 and 126 and 130 | 148 and 144 and 145 | 229 and 258 and 236 | 10.1 and 1.12 and 11.5 | 129 (2×) and 134 | 85 and 88.7 and 91 | 105 | 90.2 and 95.5 and 99.5 | 103 and 99.8 and 101 | 137 and 149 and 150 | 41.1 and 57.8 and 2.57 | 56.5 and 99 and 6.42 | -1.28 and 37.2 and 6.04 | 14.1 and 38.5 and 10.3 | 52.4 and 51.4 and 53.1 | 70.6 and -20.5 and 24.4 | Siglec-Fc binding (Figure 3d) (pDCs (CD123high/HLA-DR+)): 57.8 and 10.3 and 41.1; Siglec-Fc binding (Figure 3d) (neutrophils (CD15+)): 46.2 and 51.8 and 78.1; Siglec-Fc binding (Figure 3d) (T-cells (CD3+)): 7.7 and 27 and 12.8; Binding, B-cells [2]: 8.11 and 1.36 and 3.18; Binding, NK [3]: 1.26 and 1.99 and 1.13; Binding, Monocytes [4]: 7.43 and 2.68 and 5.18; Binding, T-cells [5]: 2.32 and 2.93 and 4.67; Siglec-7-Fc Binding [6]: 9.54 and 11.2
B2 | 75.5 and 80.8 and 81.8 | 111 and 118 and 117 | 81.8 and 84.5 and 83.4 | 124 and 130 and 128 | 102 | 116 and 119 and 110 | 171 and 183 and 144 | 16.1 and 20.7 and 14.4 | 103 (2×) and 108 | 70.6 and 77.5 and 78.9 | 131 and 130 and 128 | 74.2 and 80.5 and 83 | 80.4 and 84.2 and 88.7 | 90.2 and 97.8 and 102 | 82.2 and 51.9 and 97 | 46.2 and 59 and 12.8 | 41.1 and 56.9 and 14.4 | 38.5 and 45.7 and 13.8 | 32.1 and 52.6 and -2.57 | 66.8 and -25.7 and 30.8 | Siglec-Fc binding (Figure 3d) (pDCs (CD123high/HLA-DR+)): 74.5 and -8.98 and 57.8; Siglec-Fc binding (Figure 3d) (neutrophils (CD15+)): 44.9 and 39.4 and 8.1; Siglec-Fc binding (Figure 3d) (T-cells (CD3+)): 25.7 and 12.5 and 15.5; Binding, B-cells [2]: 9.76 and 13.2 and 11.5; Binding, NK [3]: -1.72 and -0.57 and 2.3; Binding, Monocytes [4]: 17.2 and 15.5 and 13.2; Binding, T-cells [5]: -5.17 and -4.02 and -2.3
